Key:
[1] = test system: Syk biosensor peptide GGDEEDYEEPDEPGGKbiotinGG-betaNpa-RKKRRQRRR (SAStide biosensor)
[2] = biological target: Syk biosensor peptide …biotinGG-betaNpa-… (SAStide biosensor); assay: cell-based or functional assay
[3] = test system: T1, Abl artificial substrate peptide, GGDEDDNDEVAYQAPFEDGGKbiotinGG
T1 sequence: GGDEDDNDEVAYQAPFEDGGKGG

[4] = test system: T2, Src family artificial substrate peptide A, GGEEDEDIYEELDEPGGKbiotinGG
T2 sequence: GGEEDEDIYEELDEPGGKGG

Chain of Recombinant Abl kinase (Millipore) (P00519 whole entry): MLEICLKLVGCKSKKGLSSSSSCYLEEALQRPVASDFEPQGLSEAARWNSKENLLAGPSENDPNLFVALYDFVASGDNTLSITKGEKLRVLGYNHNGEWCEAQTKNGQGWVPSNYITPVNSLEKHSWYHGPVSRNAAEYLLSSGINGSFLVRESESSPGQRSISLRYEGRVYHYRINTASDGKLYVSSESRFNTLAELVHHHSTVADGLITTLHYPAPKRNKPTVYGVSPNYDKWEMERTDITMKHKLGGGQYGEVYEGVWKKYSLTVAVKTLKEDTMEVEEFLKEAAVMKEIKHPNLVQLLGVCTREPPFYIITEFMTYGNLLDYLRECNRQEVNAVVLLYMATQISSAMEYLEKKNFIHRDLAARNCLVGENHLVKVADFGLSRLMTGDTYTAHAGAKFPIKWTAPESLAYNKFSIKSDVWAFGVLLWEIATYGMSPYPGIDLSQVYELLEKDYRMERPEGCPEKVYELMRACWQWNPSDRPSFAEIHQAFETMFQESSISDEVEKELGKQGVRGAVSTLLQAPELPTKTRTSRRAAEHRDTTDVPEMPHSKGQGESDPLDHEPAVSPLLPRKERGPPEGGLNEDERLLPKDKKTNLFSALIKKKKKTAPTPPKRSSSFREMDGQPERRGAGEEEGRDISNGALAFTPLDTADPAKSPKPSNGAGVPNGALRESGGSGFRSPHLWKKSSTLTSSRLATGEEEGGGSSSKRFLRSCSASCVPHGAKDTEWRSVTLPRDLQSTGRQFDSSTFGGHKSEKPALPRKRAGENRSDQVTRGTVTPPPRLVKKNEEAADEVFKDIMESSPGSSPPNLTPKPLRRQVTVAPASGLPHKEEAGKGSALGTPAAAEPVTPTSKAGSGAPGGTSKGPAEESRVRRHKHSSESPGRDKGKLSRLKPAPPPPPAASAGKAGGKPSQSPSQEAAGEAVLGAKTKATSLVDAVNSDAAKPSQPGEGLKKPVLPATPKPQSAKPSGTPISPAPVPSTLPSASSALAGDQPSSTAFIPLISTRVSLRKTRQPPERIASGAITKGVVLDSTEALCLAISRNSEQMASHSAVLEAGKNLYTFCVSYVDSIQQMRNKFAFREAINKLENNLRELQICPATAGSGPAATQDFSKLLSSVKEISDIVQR

Row | Substance | in vitro kinase assay, ELISA-based antiphosphotyrosine (4G10) chemifluorescence signal [1] | in vitro kinase assay, terbium-sensitized luminescence, confirmed by ELISA-based Amplex Red chemifluorescent assay [3] | other results
1 | EGFP-conjugated Syk (Syk-EGFP) isolated from DT40 chicken B cells stably expressing Syk-EGFP |  |  | in vitro kinase assay, ELISA-based antiphosphotyrosine (4G10) chemifluorescence signal over time [1]: A substantial increase in signal over time was observed, demonstrating that SAStide was phosphorylated by Syk in vitro; in vitro kinase assay, time-resolved Tb3+ luminescence, percent phosphorylation against time [1]: These data show that enzymatic phosphorylation of SAStide can be detected using time-resolved Tb^3+ luminescence
2 | EGFP-conjugated Syk (Syk-EGFP) isolated from DT40 chicken B cells stably expressing Syk-EGFP (enzyme) |  |  | phosphorylation of the biosensor peptide in Syk(-/-) DT40 cells reconstituted with Syk-EGFP, BCR stimulation by IgM, over unstimulated cells [2]: 2 fold; phosphorylation of the biosensor peptide in Syk(-/-) DT40 cells reconstituted with Syk-EGFP, H2O2 with or without BCR stimulation, over control [2]: 12 fold
3 | Recombinant Abl kinase (Millipore) | none of which produced any significant signal for phosphopeptide | ABStide was specific for Abl against the Src-family kinase, Hck | 
4 | Recombinant Hck |  | ABStide was specific for Abl against the Src-family kinase, Hck | in vitro kinase assay, time-resolved Tb3+ luminescence, percent phosphorylation against time [4]: These data show that enzymatic phosphorylation of SFAStideA can be detected using time-resolved Tb^3+ luminescence
5 | Recombinant Lyn kinase (Millipore) | none of which produced any significant signal for phosphopeptide |  | 
6 | Recombinant Src kinase (Millipore) | none of which produced any significant signal for phosphopeptide |  | 
